B1: Docking protein 2 (Homo sapiens), O60496 (parent)
chain: MGDGAVKQGFLYLQQQQTFGKKWRRFGASLYGGSDCALARLELQEGPEKPRRCEAARKVIRLSDCLRVAEAGGEASSPRDTSAFFLETKERLYLLAAPAAERGDWVQAICLLAFPGQRKELSGPEGKQSRPCMEENELYSSAVTVGPHKEFAVTMRPTEASERCHLRGSYTLRAGESALELWGGPEPGTQLYDWPYRFLRRFGRDKVTFSFEAGRRCVSGEGNFEFETRQGNEIFLALEEAISAQKNAAPATPQPQPATIPASLPRPDSPYSRPHDSLPPPSPTTPVPAPRPRGQEGEYAVPFDAVARSLGKNFRGILAVPPQLLADPLYDSIEETLPPRPDHIYDEPEGVAALSLYDSPQEPRGEAWRRQATADRDPAGLQHVQPAGQDFSASGWQPGTEYDNVVLKKGPK
partner: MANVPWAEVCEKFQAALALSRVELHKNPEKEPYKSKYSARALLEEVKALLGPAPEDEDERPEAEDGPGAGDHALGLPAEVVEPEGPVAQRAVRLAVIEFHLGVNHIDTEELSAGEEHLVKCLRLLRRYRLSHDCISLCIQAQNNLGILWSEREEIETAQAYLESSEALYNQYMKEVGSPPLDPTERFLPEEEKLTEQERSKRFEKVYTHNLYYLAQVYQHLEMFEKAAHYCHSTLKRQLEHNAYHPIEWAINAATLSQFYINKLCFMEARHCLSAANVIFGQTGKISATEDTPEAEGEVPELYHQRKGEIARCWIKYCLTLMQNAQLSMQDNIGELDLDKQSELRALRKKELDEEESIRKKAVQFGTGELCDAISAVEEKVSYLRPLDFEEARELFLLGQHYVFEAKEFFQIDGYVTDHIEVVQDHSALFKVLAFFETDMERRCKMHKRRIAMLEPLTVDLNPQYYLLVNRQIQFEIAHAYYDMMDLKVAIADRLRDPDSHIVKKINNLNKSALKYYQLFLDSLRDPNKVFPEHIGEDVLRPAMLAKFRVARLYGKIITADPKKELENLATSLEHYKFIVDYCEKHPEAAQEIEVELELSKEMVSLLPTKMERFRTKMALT
B2: Guanine nucleotide exchange factor for Rab-3A (Homo sapiens), Q8TBN0 (parent)
chain: MWSGPPQPDQGLPPPLAAVPVPWKSTDPCQGHRESPGALVETSAGEEAQGQEGPAAAQLDVLRLRSSSMEIREKGSEFLKEELHRAQKELKLKDEECERLSKVREQLEQELEELTASLFEEAHKMVREANMKQAASEKQLKEARGKIDMLQAEVTALKTLVITSTPASPNRELHPQLLSPTKAGPRKGHSRHKSTSSTLCPAVCPAAGHTLTPDREGKEVDTILFAEFQAWRESPTLDKTCPFLERVYREDVGPCLDFTMQELSVLVRAAVEDNTLTIEPVASQTLPTVKVAEVDCSSTNTCALSGLTRTCRHRIRLGDSKSHYYISPSSRARITAVCNFFTYIRYIQQGLVRQDAEPMFWEIMRLRKEMSLAKLGFFPQEA
B3: Protein LDOC1 (Homo sapiens), O95751 (parent)
chain: MVDELVLLLHALLMRHRALSIENSQLMEQLRLLVCERASLLRQVRPPSCPVPFPETFNGESSRLPEFIVQTASYMLVNENRFCNDAMKVAFLISLLTGEAEEWVVPYIEMDSPILGDYRAFLDEMKQCFGWDDDEDDDDEEEEDDY
partner: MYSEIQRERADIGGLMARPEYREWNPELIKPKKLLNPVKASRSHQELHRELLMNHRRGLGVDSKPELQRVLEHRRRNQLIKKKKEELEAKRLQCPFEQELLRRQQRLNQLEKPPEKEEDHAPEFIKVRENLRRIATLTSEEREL
B4: IQ motif and ubiquitin-like domain-containing protein (Homo sapiens), Q8NA54 (parent)
chain: MSNQQEKYEAQNIVNSTEESDDAFDTVTIPVPSEEPQESDQTEEHESGIEQFSESHAIHVEEQSDQSFSSLEPDNEQLMEEVISPRQVSYTPQHHEKQYAMQRPNDDSLAFLDKIKSVKESLQESVEDSLATVKVVLIPVGQEIVIPFKVDTILKYLKDHFSHLLGIPHSVLQIRYSGKILKNNETLVQHGVKPQEIVQVEIFSTNPDLYPVRRIDGLTDVSQIITVTVQTGLDQYQQVPVEIVKSDFHKPFLGGFRHKVTGVEYHNAGTQTVPKRIPERLSIFCRDTQTVFQKKNLQQTTNTTSTQMTNIGVYVSNMTDKLVTPGKYFSAAEYHAQRLKAVIVIQTYYRQWHAKIFVENLRRQKSLRLEWETQQELRKIREKEEWIKLDYHRRHNPKTNEDFEFLYNALEFWRQEELTRINQSFTGAERKAALCELLEKETQIIASIGRHRYIAYMANQEAAIQAFLDKCSAPKIWRTPNGKTIEMDTQFTIRARELQNIYKCIMLKNISQDERLDVLLTLKHTVKEHECKLTQEILELIDREVDLMMRGVKHHNLEGLRKRIATLFFHYIKTPLFNPEVAKYLKVPQDPLKFYKKIYFCHSCQLYLPSTEFSVSSTSRRIYRCRNCINLQNEAQKRESFLKYKCLLQQLYYTEADYEDDSKIAFLMQLQDIQYLTENIWASQSVLSACDNLSDLVMVRWNKSLEWSPWNCILLTKDEAAAHLKLTSIEEGYERSFIHKIKHKHILAKNYFSQVPVLASFILDDGEIDEIRWKYHSDTTPKIIESQRPPH
B5: Phosphatidylserine lipase ABHD16A (Homo sapiens), O95870 (parent)
chain: MAKLLSCVLGPRLYKIYRERDSERAPASVPETPTAVTAPHSSSWDTYYQPRALEKHADSILALASVFWSISYYSSPFAFFYLYRKGYLSLSKVVPFSHYAGTLLLLLAGVACLRGIGRWTNPQYRQFITILEATHRNQSSENKRQLANYNFDFRSWPVDFHWEEPSSRKESRGGPSRRGVALLRPEPLHRGTADTLLNRVKKLPCQITSYLVAHTLGRRMLYPGSVYLLQKALMPVLLQGQARLVEECNGRRAKLLACDGNEIDTMFVDRRGTAEPQGQKLVICCEGNAGFYEVGCVSTPLEAGYSVLGWNHPGFAGSTGVPFPQNEANAMDVVVQFAIHRLGFQPQDIIIYAWSIGGFTATWAAMSYPDVSAMILDASFDDLVPLALKVMPDSWRGLVTRTVRQHLNLNNAEQLCRYQGPVLLIRRTKDEIITTTVPEDIMSNRGNDLLLKLLQHRYPRVMAEEGLRVVRQWLEASSQLEEASIYSRWEVEEDWCLSVLRSYQAEHGPDFPWSVGEDMSADGRRQLALFLARKHLHNFEATHCTPLPAQNFQMPWHL
B6: Tuftelin-interacting protein 11 (Homo sapiens), Q9UBB9 (parent)
chain: MSLSHLYRDGEGRIDDDDDERENFEITDWDLQNEFNPNRQRHWQTKEEATYGVWAERDSDDERPSFGGKRARDYSAPVNFISAGLKKGAAEEAELEDSDDEEKPVKQDDFPKDFGPRKLKTGGNFKPSQKGFAGGTKSFMDFGSWERHTKGIGQKLLQKMGYVPGRGLGKNAQGIINPIEAKQRKGKGAVGAYGSERTTQSMQDFPVVDSEEEAEEEFQKELSQWRKDPSGSKKKPKYSYKTVEELKAKGRISKKLTAPQKELSQVKVIDMTGREQKVYYSYSQISHKHNVPDDGLPLQSQQLPQSGKEAKAPGFALPELEHNLQLLIDLTEQEIIQNDRQLQYERDMVVNLFHELEKMTEVLDHEERVISNLSKVLEMVEECERRMQPDCSNPLTLDECARIFETLQDKYYEEYRMSDRVDLAVAIVYPLMKEYFKEWDPLKDCTYGTEIISKWKSLLENDQLLSHGGQDLSADAFHRLIWEVWMPFVRNIVTQWQPRNCDPMVDFLDSWVHIIPVWILDNILDQLIFPKLQKEVENWNPLTDTVPIHSWIHPWLPLMQARLEPLYSPIRSKLSSALQKWHPSDSSAKLILQPWKDVFTPGSWEAFMVKNIVPKLGMCLGELVINPHQQHMDAFYWVIDWEGMISVSSLVGLLEKHFFPKWLQVLCSWLSNSPNYEEITKWYLGWKSMFSDQVLAHPSVKDKFNEALDIMNRAVSSNVGAYMQPGARENIAYLTHTERRKDFQYEAMQERREAENMAQRGIGVAASSVPMNFKDLIETKAEEHNIVFMPVIGKRHEGKQLYTFGRIVIYIDRGVVFVQGEKTWVPTSLQSLIDMAK
partner: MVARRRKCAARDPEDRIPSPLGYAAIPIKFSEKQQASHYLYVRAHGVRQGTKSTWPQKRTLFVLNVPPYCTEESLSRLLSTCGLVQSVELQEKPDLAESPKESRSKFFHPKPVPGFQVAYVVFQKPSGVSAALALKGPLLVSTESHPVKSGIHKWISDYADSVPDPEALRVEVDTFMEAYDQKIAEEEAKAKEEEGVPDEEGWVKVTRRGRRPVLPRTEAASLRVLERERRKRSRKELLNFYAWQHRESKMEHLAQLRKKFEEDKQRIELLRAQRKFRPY
B7: EKC/KEOPS complex subunit TP53RK (Homo sapiens), Q96S44 (parent)
chain: MAAARATTPADGEEPAPEAEALAAARERSSRFLSGLELVKQGAEARVFRGRFQGRAAVIKHRFPKGYRHPALEARLGRRRTVQEARALLRCRRAGISAPVVFFVDYASNCLYMEEIEGSVTVRDYIQSTMETEKTPQGLSNLAKTIGQVLARMHDEDLIHGDLTTSNMLLKPPLEQLNIVLIDFGLSFISALPEDKGVDLYVLEKAFLSTHPNTETVFEAFLKSYSTSSKKARPVLKKLDEVRLRGRKRSMVG

Variants of: B1
Conditions: with kbp_human KIFBP

| effect of a mutation on the interaction | Variant |
| --- | --- |
| disrupting interaction strength | P274L |

Variants of: B2
Conditions: with rb11a_human RAB11A

| effect of a mutation on the interaction | Variant |
| --- | --- |
| with no effect | S190P |
| with no effect | H323Y |
| with no effect | T26A |

Variants of: B3
Conditions: with FAM107A

| effect of a mutation on the interaction | Variant |
| --- | --- |
| disrupting interaction strength | L12H |

Variants of: B4
Conditions: with tri23_human TRIM23, P36406
Sequence of tri23_human TRIM23, P36406 (P36406 whole entry): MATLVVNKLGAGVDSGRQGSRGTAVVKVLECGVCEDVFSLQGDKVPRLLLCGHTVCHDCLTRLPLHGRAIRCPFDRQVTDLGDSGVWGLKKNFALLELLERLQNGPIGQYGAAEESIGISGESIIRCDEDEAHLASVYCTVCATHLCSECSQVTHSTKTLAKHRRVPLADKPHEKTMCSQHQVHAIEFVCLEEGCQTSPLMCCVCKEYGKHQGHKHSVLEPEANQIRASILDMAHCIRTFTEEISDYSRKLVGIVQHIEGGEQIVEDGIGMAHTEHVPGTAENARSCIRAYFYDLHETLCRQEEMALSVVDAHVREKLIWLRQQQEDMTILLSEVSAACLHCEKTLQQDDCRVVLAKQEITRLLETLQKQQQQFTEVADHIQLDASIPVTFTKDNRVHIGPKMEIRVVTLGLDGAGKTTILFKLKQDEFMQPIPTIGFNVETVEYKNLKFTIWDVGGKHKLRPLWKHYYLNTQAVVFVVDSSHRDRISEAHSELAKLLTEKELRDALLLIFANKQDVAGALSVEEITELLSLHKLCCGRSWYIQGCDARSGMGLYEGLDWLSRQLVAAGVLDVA

| effect of a mutation on the interaction | Variant |
| --- | --- |
| with no effect | V126M |

Variants of: B5
Conditions: with dtx2_human DTX2, Q86UW9
Sequence of dtx2_human DTX2, Q86UW9 (Q86UW9 whole entry): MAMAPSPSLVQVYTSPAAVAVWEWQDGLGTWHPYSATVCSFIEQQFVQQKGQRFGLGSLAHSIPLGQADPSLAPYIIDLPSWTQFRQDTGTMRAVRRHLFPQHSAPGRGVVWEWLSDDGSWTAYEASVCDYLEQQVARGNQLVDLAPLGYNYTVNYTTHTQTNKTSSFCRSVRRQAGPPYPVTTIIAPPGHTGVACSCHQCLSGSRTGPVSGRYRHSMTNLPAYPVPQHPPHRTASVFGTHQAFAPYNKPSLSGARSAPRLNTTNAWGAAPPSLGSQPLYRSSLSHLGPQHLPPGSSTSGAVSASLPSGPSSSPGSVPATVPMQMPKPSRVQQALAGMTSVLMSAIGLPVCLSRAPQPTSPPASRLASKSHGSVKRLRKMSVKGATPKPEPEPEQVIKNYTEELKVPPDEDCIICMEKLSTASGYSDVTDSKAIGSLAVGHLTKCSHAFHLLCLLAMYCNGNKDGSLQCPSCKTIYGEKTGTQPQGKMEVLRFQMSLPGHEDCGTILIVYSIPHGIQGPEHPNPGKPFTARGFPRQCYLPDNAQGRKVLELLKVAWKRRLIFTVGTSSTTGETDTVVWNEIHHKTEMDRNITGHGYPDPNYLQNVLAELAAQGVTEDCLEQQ

| effect of a mutation on the interaction | Variant |
| --- | --- |
| with no effect | R184L |

Variants of: B6
Conditions: with rrp7a_human RRP7A

| effect of a mutation on the interaction | Variant |
| --- | --- |
| with no effect | M140V |

Variants of: B7
Conditions: with ccdb1_human CCNDBP1, O95273
Sequence of ccdb1_human CCNDBP1, O95273 (O95273 whole entry): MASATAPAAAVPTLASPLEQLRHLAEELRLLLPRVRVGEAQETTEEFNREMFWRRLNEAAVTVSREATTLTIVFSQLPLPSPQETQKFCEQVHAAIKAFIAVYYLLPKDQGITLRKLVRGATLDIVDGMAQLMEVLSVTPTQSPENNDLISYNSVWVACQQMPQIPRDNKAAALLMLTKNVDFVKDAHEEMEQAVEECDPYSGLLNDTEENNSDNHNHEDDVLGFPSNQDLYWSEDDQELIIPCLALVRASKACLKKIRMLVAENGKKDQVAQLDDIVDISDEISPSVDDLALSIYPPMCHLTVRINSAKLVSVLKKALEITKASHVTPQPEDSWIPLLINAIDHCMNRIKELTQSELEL

| effect of a mutation on the interaction | Variant |
| --- | --- |
| disrupting interaction strength | R123Q |
| with no effect | T8M |
| with no effect | T129A |

From IntAct's records for PubMed 31515488
